Measured values: patent US20060045883A1, “Anti-cancer vaccines” (priority 2004, published 2006)

Legend:
[1] = target: HLA-A2.1 (HLA-A*0201) on the surface of T2 cells (human); assay: peptide-binding assay, stabilisation of HLA-A2 on the surface of T2 cells, fluorescence intensity relative to PR1
[2] = target: HLA-A2.1 heavy chain with I125-labeled beta2-microglobulin (heterotrimer dissociation assay) (human); assay: dissociation of I125-labeled beta2-microglobulin from the heavy chain/peptide/beta2-microglobulin complex, HPLC gel filtration

FI CCNE1144-152/FI PR1 [1] | Substance | T1/2 [2] [h]
1.01 | CCNE1144-152 (cyclin E1 derived nonameric peptide) (from UniProt P24864 144-152) | 
 | HTLV-1 Tax peptide (aa 11-19) (from UniProt P03409 11-19) (peptide; other documents disagree on this pair) | 133
